Experimental data reported in paper PMC3026963.

Target: protein kinase CK2 catalytic subunit α (human) (UniProt P68400)
Sequence (P68400 whole entry): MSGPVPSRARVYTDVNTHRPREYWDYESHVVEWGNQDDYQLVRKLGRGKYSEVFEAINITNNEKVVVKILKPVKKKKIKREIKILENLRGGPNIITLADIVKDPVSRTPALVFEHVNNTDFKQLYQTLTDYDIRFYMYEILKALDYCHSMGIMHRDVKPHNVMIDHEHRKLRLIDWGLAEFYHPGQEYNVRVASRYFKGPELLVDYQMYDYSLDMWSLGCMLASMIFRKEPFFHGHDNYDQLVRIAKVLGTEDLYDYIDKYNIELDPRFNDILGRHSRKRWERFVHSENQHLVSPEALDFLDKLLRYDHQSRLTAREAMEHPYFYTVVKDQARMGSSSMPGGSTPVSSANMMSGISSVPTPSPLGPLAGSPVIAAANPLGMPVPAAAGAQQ

β-peptide(181–203), sequence (P67870 181-203): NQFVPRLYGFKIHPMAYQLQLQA

β-peptide(181–203) (from UniProt P67870 181-203)
Kd: 8.45 µM
